Bridge positions count the residues as written; N and C are the ends. Square brackets hold non-standard residues; d marks the D form. * marks the point of attachment. Orn = NCCC[C@H](N)C(=O)O; NHcPr = C1CC1N*
B1: Ac-Arg-cyclo(Glu-Lys-D-Phe-Arg-Trp-Orn)-OH (peptide)
peptide: REKFRWX
HELM: PEPTIDE1{[ac].R.E.K.[dF].R.W.[Orn]}$PEPTIDE1,PEPTIDE1,3:R3-8:R3$$$V2.0
SMILES: CC(=O)N[C@@H](CCCNC(=N)N)C(=O)N[C@H]1CCC(=O)NCCC[C@@H](C(=O)O)NC(=O)[C@H](Cc2c[nH]c3ccccc23)NC(=O)[C@H](CCCNC(=N)N)NC(=O)[C@@H](Cc2ccccc2)NC(=O)[C@H](CCCCN)NC1=O
notes: also called peptide No. 89
B2: Ac-Arg-cyclo(Orn-Ala-D-Phe-Arg-Trp-Glu)-NH2 (peptide)
peptide: RXAFRWE
HELM: PEPTIDE1{[ac].R.[Orn].A.[dF].R.W.E.[am]}$PEPTIDE1,PEPTIDE1,3:R3-8:R3$$$V2.0
SMILES: CC(=O)N[C@@H](CCCNC(=N)N)C(=O)N[C@H]1CCCNC(=O)CC[C@@H](C(N)=O)NC(=O)[C@H](Cc2c[nH]c3ccccc23)NC(=O)[C@H](CCCNC(=N)N)NC(=O)[C@@H](Cc2ccccc2)NC(=O)[C@H](C)NC1=O
notes: also called peptide No. 120
B3: Ac-Arg-cyclo(Asp-Asn-D-Phe-Arg-Trp-Lys)-NH2 (peptide)
peptide: RDNFRWK
HELM: PEPTIDE1{[ac].R.D.N.[dF].R.W.K.[am]}$PEPTIDE1,PEPTIDE1,3:R3-8:R3$$$V2.0
SMILES: CC(=O)N[C@@H](CCCNC(=N)N)C(=O)N[C@H]1CC(=O)NCCCC[C@@H](C(N)=O)NC(=O)[C@H](Cc2c[nH]c3ccccc23)NC(=O)[C@H](CCCNC(=N)N)NC(=O)[C@@H](Cc2ccccc2)NC(=O)[C@H](CC(N)=O)NC1=O
notes: also called peptide No. 29
B4: Ac-Arg-cyclo(Asp-Gln-D-Phe-Arg-Trp-Lys)-NH2 (peptide)
peptide: Ac-RDQ[dF]RWK-NH2
modifications: lactam 2-7
notes: any difference is only in the drawings; also called peptide No. 78
B5: Ac-Arg-cyclo(Asp-Met-D-Phe-Arg-Trp-Lys)-NH2 (peptide)
peptide: RDMFRWK
HELM: PEPTIDE1{[ac].R.D.M.[dF].R.W.K.[am]}$PEPTIDE1,PEPTIDE1,3:R3-8:R3$$$V2.0
SMILES: CSCC[C@@H]1NC(=O)[C@@H](NC(=O)[C@H](CCCNC(=N)N)NC(C)=O)CC(=O)NCCCC[C@@H](C(N)=O)NC(=O)[C@H](Cc2c[nH]c3ccccc23)NC(=O)[C@H](CCCNC(=N)N)NC(=O)[C@@H](Cc2ccccc2)NC1=O
notes: also called peptide No. 38
B6: Ac-Lys-cyclo(Asp-His-D-Phe-Arg-Trp-Lys)-NH2 (peptide)
peptide: KDHFRWK
HELM: PEPTIDE1{[ac].K.D.H.[dF].R.W.K.[am]}$PEPTIDE1,PEPTIDE1,3:R3-8:R3$$$V2.0
SMILES: CC(=O)N[C@@H](CCCCN)C(=O)N[C@H]1CC(=O)NCCCC[C@@H](C(N)=O)NC(=O)[C@H](Cc2c[nH]c3ccccc23)NC(=O)[C@H](CCCNC(=N)N)NC(=O)[C@@H](Cc2ccccc2)NC(=O)[C@H](Cc2c[nH]cn2)NC1=O
notes: also called peptide No. 135
B7: Ac-Arg-cyclo(Asp-His-D-Phe-Lys-Trp-Lys)-NH2 (peptide)
peptide: RDHFKWK
HELM: PEPTIDE1{[ac].R.D.H.[dF].K.W.K.[am]}$PEPTIDE1,PEPTIDE1,3:R3-8:R3$$$V2.0
SMILES: CC(=O)N[C@@H](CCCNC(=N)N)C(=O)N[C@H]1CC(=O)NCCCC[C@@H](C(N)=O)NC(=O)[C@H](Cc2c[nH]c3ccccc23)NC(=O)[C@H](CCCCN)NC(=O)[C@@H](Cc2ccccc2)NC(=O)[C@H](Cc2c[nH]cn2)NC1=O
notes: also called peptide No. 6
B8: Ac-Arg-cyclo(Asp-Lys-D-Phe-Lys-Trp-Lys)-NH2 (peptide)
peptide: RDKFKWK
HELM: PEPTIDE1{[ac].R.D.K.[dF].K.W.K.[am]}$PEPTIDE1,PEPTIDE1,3:R3-8:R3$$$V2.0
SMILES: CC(=O)N[C@@H](CCCNC(=N)N)C(=O)N[C@H]1CC(=O)NCCCC[C@@H](C(N)=O)NC(=O)[C@H](Cc2c[nH]c3ccccc23)NC(=O)[C@H](CCCCN)NC(=O)[C@@H](Cc2ccccc2)NC(=O)[C@H](CCCCN)NC1=O
notes: also called peptide No. 7
B9: Ac-Arg-cyclo(Asp-Leu-D-Phe-Arg-Trp-Lys)-NH2 (peptide)
peptide: RDLFRWK
HELM: PEPTIDE1{[ac].R.D.L.[dF].R.W.K.[am]}$PEPTIDE1,PEPTIDE1,3:R3-8:R3$$$V2.0
SMILES: CC(=O)N[C@@H](CCCNC(=N)N)C(=O)N[C@H]1CC(=O)NCCCC[C@@H](C(N)=O)NC(=O)[C@H](Cc2c[nH]c3ccccc23)NC(=O)[C@H](CCCNC(=N)N)NC(=O)[C@@H](Cc2ccccc2)NC(=O)[C@H](CC(C)C)NC1=O
notes: also called peptide No. 12
B10: Ac-Arg-cyclo(Asp-Ile-D-Phe-Arg-Trp-Lys)-NH2 (peptide)
peptide: RDIFRWK
HELM: PEPTIDE1{[ac].R.D.I.[dF].R.W.K.[am]}$PEPTIDE1,PEPTIDE1,3:R3-8:R3$$$V2.0
SMILES: CC[C@H](C)[C@@H]1NC(=O)[C@@H](NC(=O)[C@H](CCCNC(=N)N)NC(C)=O)CC(=O)NCCCC[C@@H](C(N)=O)NC(=O)[C@H](Cc2c[nH]c3ccccc23)NC(=O)[C@H](CCCNC(=N)N)NC(=O)[C@@H](Cc2ccccc2)NC1=O
notes: also called peptide No. 34
B11: Ac-Arg-cyclo(Asp-His-D-(alpha-Me)Phe-Arg-Trp-Lys)-NH2 (peptide)
peptide: RDHFRWK
HELM: PEPTIDE1{[ac].R.D.H.[C[C@](Cc1ccccc1)(N[*:1])C(=O)[*:2]].R.W.K.[am]}$PEPTIDE1,PEPTIDE1,3:R3-8:R3$$$V2.0
SMILES: CC(=O)N[C@@H](CCCNC(=N)N)C(=O)N[C@H]1CC(=O)NCCCC[C@@H](C(N)=O)NC(=O)[C@H](Cc2c[nH]c3ccccc23)NC(=O)[C@H](CCCNC(=N)N)NC(=O)[C@@](C)(Cc2ccccc2)NC(=O)[C@H](Cc2c[nH]cn2)NC1=O
notes: also called peptide No. 60
B12: Ac-Arg-cyclo(Asp-Tyr-D-Phe-Arg-Trp-Lys)-NH2 (peptide)
peptide: RDYFRWK
HELM: PEPTIDE1{[ac].R.D.Y.[dF].R.W.K.[am]}$PEPTIDE1,PEPTIDE1,3:R3-8:R3$$$V2.0
SMILES: CC(=O)N[C@@H](CCCNC(=N)N)C(=O)N[C@H]1CC(=O)NCCCC[C@@H](C(N)=O)NC(=O)[C@H](Cc2c[nH]c3ccccc23)NC(=O)[C@H](CCCNC(=N)N)NC(=O)[C@@H](Cc2ccccc2)NC(=O)[C@H](Cc2ccc(O)cc2)NC1=O
notes: also called peptide No. 11
B13: Ac-Arg-cyclo(Asp-Trp-D-Phe-Arg-Trp-Lys)-NH2 (peptide)
peptide: RDWFRWK
HELM: PEPTIDE1{[ac].R.D.W.[dF].R.W.K.[am]}$PEPTIDE1,PEPTIDE1,3:R3-8:R3$$$V2.0
SMILES: CC(=O)N[C@@H](CCCNC(=N)N)C(=O)N[C@H]1CC(=O)NCCCC[C@@H](C(N)=O)NC(=O)[C@H](Cc2c[nH]c3ccccc23)NC(=O)[C@H](CCCNC(=N)N)NC(=O)[C@@H](Cc2ccccc2)NC(=O)[C@H](Cc2c[nH]c3ccccc23)NC1=O
notes: also called peptide No. 36

Molecular target: T1, human recombinant melanocortin-4 receptor (human, UniProt P32245 1-332)
T1 construct: whole, on cells; cAMP assays used the whole cells; also called hMC4-R; MC4-R
Experiment: competitive inhibition of Eu-NDP-α-MSH (TRF), hMC4-R HEK-293 membranes
Method: After incubation for 90 minutes at 37° C., the reaction was stopped by filtration over AcroWell 96-well filter plates (Pall Life Sciences). The filter plates were washed 4 times with 200 μL of ice-cold phosphate-buffered saline. DELFIA Enhancement solution (PerkinElmer Life Sciences) was added to each well. The plates were incubated on a shaker for 15 minutes and read at 340 nm excitation and 615 nm emission wavelengths. Each assay was conducted in duplicate and mean values were utilized. Ki values were determined by curve-fitting with Graph-Pad Prism® software using a one-site fixed-slope competition binding model.
9.1 Peptides of the following structures were synthesized by the general methods described above, and averaged MC4-R Ki values for peptides were determined as indicated. […] Ki values marked “ND” were not determined.

T1 sequence (P32245 whole entry): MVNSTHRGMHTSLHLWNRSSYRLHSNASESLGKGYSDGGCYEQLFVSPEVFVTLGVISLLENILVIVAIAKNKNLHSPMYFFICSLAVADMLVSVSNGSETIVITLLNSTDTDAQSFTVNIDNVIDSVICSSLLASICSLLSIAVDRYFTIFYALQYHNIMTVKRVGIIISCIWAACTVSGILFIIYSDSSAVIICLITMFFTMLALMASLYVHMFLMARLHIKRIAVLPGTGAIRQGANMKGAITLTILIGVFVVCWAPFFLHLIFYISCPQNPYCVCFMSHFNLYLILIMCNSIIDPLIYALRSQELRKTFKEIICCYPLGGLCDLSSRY

| Binder | Ki |
| --- | --- |
| Ac-RKH[dF]RWD-NH2 (lactam 2-7, also called peptide No. 96) [Ac-Arg-cyclo(Lys-His-D-Phe-Arg-Trp-Asp)-NH2] | 1 nM |
| Ac-REH[dF]RW[Orn]-NH2 (lactam 2-7, also called peptide No. 64) [Ac-Arg-cyclo(Glu-His-D-Phe-Arg-Trp-Orn)-NH2] | 1 nM |
| B1 | 113 nM |
| B2 | 19 nM |
| Ac-K[Orn]H[dF]RWE-NH2 (lactam 2-7, also called peptide No. 132) [Ac-Lys-cyclo(Orn-His-D-Phe-Arg-Trp-Glu)-NH2] | 3 nM |
| Ac-[dK][Orn]H[dF]RWE-NH2 (lactam 2-7) [Ac-D-Lys-cyclo(Orn-His-D-Phe-Arg-Trp-Glu)-NH2] | 8 nM |
| B3 | 32 nM |
| Ac-RDT[dF]RWK-NH2 (lactam 2-7, also called peptide No. 35) [Ac-Arg-cyclo(Asp-Thr-D-Phe-Arg-Trp-Lys)-NH2] | 140 nM |
| B4 | 86 nM |
| B5 | 35 nM |
| B6 | 9 nM |
| B7 | 533 nM |
| Ac-RDQ[dF]RWK-NHcPr (lactam 2-7) [Ac-Arg-cyclo(Asp-Gln-D-Phe-Arg-Trp-Lys)-NH-cyclopropyl] | 64 nM |
| Ac-[dR]DA[dF]RWK-NH2 (lactam 2-7, also called peptide No. 70) [Ac-D-Arg-cyclo(Asp-Ala-D-Phe-Arg-Trp-Lys)-NH2] | 46 nM |
| B8 | 2960 nM |
| B9 | 33 nM |
| B10 | 19 nM |
| B11 | 47 nM |
| B12 | 43 nM |
| B13 | 37 nM |

From patent US20120178701A1 (PALATIN TECHNOLOGIES, published 2012)
